Laboratory results published in US11156615B2 (priority 2015, dated 2021).
Numbering of substitutions follows the chain as printed.

B1: ttGGBP182C.9: affinity-tuning mutant, 182C background, SEQ ID NO: 103 (protein)
chain: MKQLNIGVAIYKFDNTFMTGVRNAMTAEAQGKAKLNMVDSQNSQPTQNDQVDLFITKKMNALAINPVDRTAAGTIIDKAKQANIPVVFFNREPLPEDMKKWDKVYYVGAKAEQSGILQGQIMADYWKAHPEADKNHDGVMQYVMLMGQPGHQDAILRTQYSIQTVKDAGIKVQELAKDYANCDRVTAHDKMAAWLSSFGDKIEAVFANNDDMALGAIEALKSAGYFTGNKYIPVVGVDATAPGIQAIKDGTLLGTVLNDAKNQAKATFNIAYELAQGITPTKDNIGYDITDGKYVWIPYKKITKDNISDAEQGGSHHHHHH
modifications: ttGGBP182C.9 (affinity-tuning mutant, 182C background (Table 6) with signal peptide replaced with M and GGSHHHHHH at C-terminus)
B2: ttGGBP182C.8: affinity-tuning mutant, 182C background, SEQ ID NO: 102 (protein)
chain: B1 chain with N15D, R91K, Q148K
modifications: ttGGBP182C.8 (affinity-tuning mutant, 182C background (Table 6) with signal peptide replaced with M and GGSHHHHHH at C-terminus)
B3: ttGGBP182C.6: affinity-tuning mutant, 182C background, SEQ ID NO: 100 (protein)
chain: B1 chain with N15D, T16N, D211A
modifications: ttGGBP182C.6 (affinity-tuning mutant, 182C background (Table 6) with signal peptide replaced with M and GGSHHHHHH at C-terminus)
B4: ttGGBP17C.25: affinity-tuning mutant, 17C background, SEQ ID NO: 83 (protein)
chain: B1 chain with N15D, F17C, C182W, A260K
modifications: ttGGBP17C.25 (affinity-tuning mutant, 17C background (Table 6) with signal peptide replaced with M and GGSHHHHHH at C-terminus)
B5: ttGGBP17C.5: affinity-tuning mutant, 17C background, SEQ ID NO: 70 (protein)
chain: B1 chain with N15A, F17C, C182W
modifications: ttGGBP17C.5 (affinity-tuning mutant, 17C background (Table 6) with signal peptide replaced with M and GGSHHHHHH at C-terminus)
B6: ttGGBP17C.11: affinity-tuning mutant, 17C background, SEQ ID NO: 76 (protein)
chain: B1 chain with N15D, F17C, C182W, T240A
modifications: ttGGBP17C.11 (affinity-tuning mutant, 17C background (Table 6) with signal peptide replaced with M and GGSHHHHHH at C-terminus)
B7: ttGGBP17C.9: affinity-tuning mutant, 17C background, SEQ ID NO: 74 (protein)
chain: B1 chain with N15D, T16S, F17C, C182W
modifications: ttGGBP17C.9 (affinity-tuning mutant, 17C background (Table 6) with signal peptide replaced with M and GGSHHHHHH at C-terminus)
B8: ttGGBP17C.1: affinity-tuning mutant, 17C background, SEQ ID NO: 66 (protein)
chain: B1 chain with N15D, F17C, R91K, Q148E, C182W
modifications: ttGGBP17C.1 (affinity-tuning mutant, 17C background (Table 6) with signal peptide replaced with M and GGSHHHHHH at C-terminus)
B9: ttGGBP17C.22: affinity-tuning mutant, 17C background, SEQ ID NO: 80 (protein)
chain: B1 chain with N15D, F17C, C182W, A260N
modifications: ttGGBP17C.22 (affinity-tuning mutant, 17C background (Table 6) with signal peptide replaced with M and GGSHHHHHH at C-terminus)
B10: ttGGBP17C.10: affinity-tuning mutant, 17C background, SEQ ID NO: 75 (protein)
chain: B1 chain with N15D, F17C, G20A, C182W
modifications: ttGGBP17C.10 (affinity-tuning mutant, 17C background (Table 6) with signal peptide replaced with M and GGSHHHHHH at C-terminus)
B11: ttGGBP17C.29: affinity-tuning mutant, 17C background, SEQ ID NO: 87 (protein)
chain: B1 chain with N15D, F17C, C182W, A260S
modifications: ttGGBP17C.29 (affinity-tuning mutant, 17C background (Table 6) with signal peptide replaced with M and GGSHHHHHH at C-terminus)

Test: Galactose binding: isothermal fluorescence titrations of conjugates
Design: key to Galactose trueKd: nb, no bonding
Conditions: Acrylodan conjugate; S > 1, selective for glucose
With B1 the “S, selectivity = trueKd(galactose)/trueKd(glucose)” value was 3.7.
With B2 the “S, selectivity = trueKd(galactose)/trueKd(glucose)” value was 5.8.
For B3, the “S, selectivity = trueKd(galactose)/trueKd(glucose)” value was 2.9.

Same assay, conditions: Badan conjugate; monochromatic titration curves; room temperature
In the case of B4, the “Galactose trueKd” value is reported as “nb^e”.

Same assay, conditions: read-out: Galactose trueKd; Acrylodan conjugate; monochromatic titration curves; room temperature
With B3 the Kd was 81 mM.

Test: Glucose binding: isothermal fluorescence titrations, ratiometric (appKd) and monochromatic (trueKd) fits
Conditions: read-out: Glucose appKd; Acrylodan conjugate; dichromatic ratiometry; room temperature
Excerpt: 2 For a single glucose-binding site, the fractional saturation is given by
[formula] where ^apoIλ2 and ^satIλ2 are the emission intensities of the monochromatic signal at wavelength λ2 of the ligand-free and ligand-bound protein, respectively.
B5 showed a Kd of 6 mM.
Molecule B1 has a Kd of 75.1 mM.
With B6 the Kd was 0.04 mM.
Molecule B7 has a Kd of 0.2 mM.
For B2, the Kd was 28.7 mM.
With B3 the Kd was 21.6 mM.

Same assay, conditions: read-out: Glucose appKd; Badan conjugate; dichromatic ratiometry; room temperature
B5 gave a Kd of 16 mM.
B8 showed a Kd of 0.6 mM.
In the case of B4, the Kd is reported as 3.2 mM.
B9 showed a Kd of 12 mM.

Same assay, conditions: read-out: Glucose trueKd; Acrylodan conjugate; monochromatic titration curves; room temperature
B5 gave a Kd of 6 mM.
For B1, the Kd was 76.4 mM.
B6 gave a Kd of 0.04 mM.
B7 gave a Kd of 0.2 mM.
With B2 the Kd was 44.2 mM.
With B3 the Kd was 27.6 mM.

Same assay, conditions: read-out: Glucose trueKd; Badan conjugate; monochromatic titration curves; room temperature
In the case of B5, the Kd is reported as 16 mM.
Molecule B8 has a Kd of 0.8 mM.
Molecule B4 has a Kd of 3.7 mM.
Molecule B9 has a Kd of 15 mM.

Test: Glucose-dependent fluorescence emission intensity spectra of conjugates (Nanodrop3300)
Format: biochemical
Conditions: Acrylodan conjugate of ttGGBP or ecGGBP (Ec) cysteine mutant; Nanodrop3300
Excerpt: Semi-synthetic FRSs were engineered by site-specifically attaching thiol-reactive, environmentally sensitive fluorophores that respond to ligand-mediated conformational changes. Identification of FRS candidates that are useful for sensing applications comprises three steps: • 1. Cysteine scan. Mutant glucose-binding proteins containing single cysteines are constructed for site-specific attachment of thiol-reactive fluorophores. […] Candidate positions fall into three classes: endosteric, replacing a residue that contacts the ligand directly; peristeric, located at the rim of the binding site; allosteric (Marvin et al. 1997 Proc Natl Acad Sci USA, 94, 4366-71; Marvin 1998 J Am Chem Soc, 120, 7-11), located outside the binding site at sites that undergo local structural changes in concert with the hinge-bending motion. • 2. Fluorophore screening. Thiol-reactive, environmentally sensitive fluorophores are attached to each cysteine mutant prepared in step 1. • 3. Evaluation of the glucose-mediated change of all the fluorescent conjugates prepared in step 2. Responses to ligand binding in which there is both a change in fluorescence emission intensity and spectral shape was essential for chemometric applications, because such changes enable ratiometric measurements. Changes in spectral shape typically are accompanied by a shift in the wavelength of the emission intensity maxima. Three classes of fluorescent responses are possible: • i. No response. • ii. Monochromatic response (emission intensity increases or decreases without a change in spectral shape) • iii.
For W183C (Ec), the “Type of fluorescence response to glucose” value was “r (b) (r (b), ratiometric (bathochromic shift))”.

Same assay, conditions: Acrylodan conjugate of ttGGBP.17C mutant; Nanodrop3300
For B5, the “Type of fluorescence response to glucose” value was “r(h) (r(h), ratiometric (hypsochromic shift))”.
In the case of B10, the “Type of fluorescence response to glucose” value is reported as “d (d, intensity decrease only)”.
With B6 the “Type of fluorescence response to glucose” value was “d (d, intensity decrease only)”.
For B7, the “Type of fluorescence response to glucose” value was “r(h) (r(h), ratiometric (hypsochromic shift))”.
For B8, the “Type of fluorescence response to glucose” value was “d (d, intensity decrease only)”.

Same assay, conditions: Badan conjugate of ttGGBP.17C mutant; Nanodrop3300
In the case of B5, the “Type of fluorescence response to glucose” value is reported as “r(h) (r(h), ratiometric (hypsochromic shift))”.
For B8, the “Type of fluorescence response to glucose” value was “r(h) (r(h), ratiometric (hypsochromic shift))”.
For B4, the “Type of fluorescence response to glucose” value was “i (i, intensity increase only)”.
For B9, the “Type of fluorescence response to glucose” value was “i (i, intensity increase only)”.
In the case of B11, the “Type of fluorescence response to glucose” value is reported as “i (i, intensity increase only)”.

Same assay, conditions: isochromic / hypsochromic / bathochromic
In the case of “ecGGBP W183C⋅Acrylodan: Acrylodan attached to W183C mutant of E. coli GGBP (SEQ ID NO: 32)”, the “direction of emission wavelength shift upon glucose binding” value is reported as “bathochromic”.

Test: Thermostability: mid-point thermal denaturation temperature (Tm) from temperature-dependent fluorescence (Roche LightCycler)
Format: physicochemical
Conditions: Acrylodan conjugate; apo-protein
Excerpt: Protein (un)folding is monitored by binding of SYPRO to the unfolded state as a function of temperature. Fluorescence intensity increases upon binding of SYPRO by the unfolded state.
Panels A-C: ttGBP182C.2.0-Imm0; Panels D-F: ttGBP182C.2.0-Imm1 (see FIG. 13). (A) Solution (Tm=347.6K). (B) Immobilized on Nickel-nitriloacetic acid (Ni-NTA) beads (Tm=346.7K). (C) Reconstituted, desiccated Ni-NTA beads (Tm=347.6K). (D) Fluorescence response of ttGGBP5.2 Imm1 immobilized on NHS-functionalized agarose beads. Data was collected on a Roche LightCycler real-time PCS instrument, recording emission intensities at 488 nm and 510 nm as a function of temperature in a 384-well microtiter plate. […] Temperature melts of twelve different wells. Apo protein thermostability as reported by the denaturation mid-point temperature is 349 K, similar to the protein free in solution. […] (F) Representative Langmuir ligand-binding curve extracted from the three-dimensional data.
Temperatures were advanced in 1K steps. […] Under these experimental photobleaching was not observed.
With B5 the apoTm was 348 K.
Work on B10 yielded an apoTm of 351 K.
Molecule B1 has an apoTm of 343 K.
In the case of B6, the apoTm is reported as 348 K.
B2 showed an apoTm of 346 K.
Molecule B3 has an apoTm of 345 K.

Same assay, conditions: Badan conjugate; apo-protein
Work on B5 yielded an apoTm of 345 K.
In the case of B9, the apoTm is reported as 343 K.
With B11 the apoTm was 343 K.
